Article PMC10157364 (Molecular Cancer Therapeutics, 2023)
Where a chain is given by its changes, count along the chain named. Numbers in names are those of the source.

B1: C0008 (antibody, V domains shown)
VH: EVQLLESGGGLVQPGGSLRLSCAASGFTFSIYSMNWVRQAPGKGLEWVSSIGSSGGTTYYADSVKGRFTISRDNSKNTLYLQMNSLRAEDTAVYYCAGSQWLYGMDVWGQGTTVTVSS
VL: DIQMTQSPSSLSASVGDRVTITCRSSQRIMTYLNWYQQKPGKAPKLLIFVASHSQSGVPSRFRGSGSETDFTLTISGLQPEDSATYYCQQSFWTPLTFGGGTKVEIK
notes: human IgG1 wt constant region; variable region shared with BaxB01 (PDB 6FOE); full-length light chain identical to that of imalumab; Human IgG1; also called imalumab; Bax69; source: ExpiCHO, transient expression, purified (Protein A MabSelect PrismA, HiTrap SP HP)
B2: ON203 (antibody, V domains shown)
VH: B1 VH with L5Q, W101Y
VL: B1 VL with F49Y, A51G, W93F
notes: heavy-chain variable domain of C0090: the VH of m1 with point mutations; heavy-chain constant region of an IgG1/IgG2 hybrid isotype with two point mutations (S239D/I332E) in the CH2 domain; light chain of C0090: as the light chain of m1 with point mutations in VL; Variable domains of C0090 on an IgG1/IgG2 hybrid constant region; also called second-generation anti-oxMIF mAb; lead candidate; …
B3: ON103 (antibody, V domains shown)
VH: B1 VH with L5Q, W101Y
VL: B1 VL with M30L, F49Y, A51G, P80S, W93F
notes: heavy-chain variable domain of C0083: the VH of m1 with point mutations; heavy-chain constant region of an IgG1/IgG2 hybrid isotype with two point mutations (S239D/I332E) in the CH2 domain; light chain of C0083: as the light chain of m1 with point mutations in VL; Variable domains of C0083 on an IgG1/IgG2 hybrid constant region; also called second-generation anti-oxMIF mAb; lead candidate; …

Experiments:
[1] = target: T1, mouse MIF treated with 0.2% Proclin300 (oxMIF surrogate) (Mus musculus, UniProt P34884, treated with 0.2% Proclin300 to transform MIF into an oxMIF surrogate); assay: ELISA; quantitative oxMIF ELISA: 15 nmol/L C0008, ON103 or ON203 as capture antibodies; human or mouse MIF in buffers with 0.2% Proclin300 as standard curves; EC50; details: both partners purified
T1 construct: mouse MIF; also called mouse oxMIF in solution; soluble mouse oxMIF; source: E. coli SHuffle T7 Express lysY, purified (DEAE flow-through, SP cation exchange, SEC or desalting)

[2] = target: T2, human MIF treated with 0.2% Proclin300 (oxMIF surrogate) (Homo sapiens, UniProt P14174, treated with 0.2% Proclin300 to transform MIF into an oxMIF surrogate); assay: SPR; Biacore 3000; antibodies amine-coupled to CM5 chips (about 2,500; 1,500; 1,000 RU); MIF at 42-666 nmol/L in HBS-EP with 0.2% Proclin300 (3 hours, room temperature), 30 uL/minute; Langmuir 1:1 model with mass transfer; mean of flow cells 2-4; details: both partners purified
T2 construct: human MIF; Same protein as m4, after treatment with Proclin300 (3 hours at room temperature for SPR); also called human oxMIF in solution; soluble human oxMIF; source: E. coli SHuffle T7 Express lysY, purified (DEAE flow-through, SP cation exchange, SEC or desalting)
T2 sequence (P14174 whole entry): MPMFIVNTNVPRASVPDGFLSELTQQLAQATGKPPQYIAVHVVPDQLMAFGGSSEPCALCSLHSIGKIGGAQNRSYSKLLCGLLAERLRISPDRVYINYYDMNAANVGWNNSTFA

Binder | binding result [1] | binding result [2]
B1 | binds | binds
B2 | binds | 
B3 | binds | 
